Test results as given in PMC12607630 (2025).

Tests used:
Experiment in all cases: BLI
SUMO-FtsZ^370-383 = biological target: T1, SUMO-FtsZ^370-383 (Escherichia coli, UniProt P0A9A6 370-383)
T1 chain: DYLDIPAFLRKQAD

SUMO-FtsZ^316-370 = biological target: T2, SUMO-FtsZ^316-370 (Escherichia coli, UniProt P0A9A6 316-370)
T2 chain: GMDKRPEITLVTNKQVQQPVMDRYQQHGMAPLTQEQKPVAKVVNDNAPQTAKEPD

6×His-ZapC^K94D = 6×His-ZapC^K94D (Escherichia coli, UniProt P75862 1-180, K94D)
6×His-ZapC^F30D = 6×His-ZapC^F30D (Escherichia coli, UniProt P75862 1-180, F30D)

B1: ZapC (untagged) (natural protein)
chain: not shown
Kd (SUMO-FtsZ^370-383): 11.4 µM | Kd (SUMO-FtsZ^316-370): 50.7 µM

B2: FtsZ (wild-type, untagged) (natural protein)
chain: MFEPMELTNDAVIKVIGVGGGGGNAVEHMVRERIEGVEFFAVNTDAQALRKTAVGQTIQIGSGITKGLGAGANPEVGRNAADEDRDALRAALEGADMVFIAAGMGGGTGTGAAPVVAEVAKDLGILTVAVVTKPFNFEGKKRMAFAEQGITELSKHVDSLITIPNDKLLKVLGRGISLLDAFGAANDVLKGAVQGIAELITRPGLMNVDFADVRTVMSEMGYAMMGSGVASGEDRAEEAAEMAISSPLLEDIDLSGARGVLVNITAGFDLRLDEFETVGNTIRAFASDNATVVIGTSLDPDMNDELRVTVVATGIGMDKRPEITLVTNKQVQQPVMDRYQQHGMAPLTQEQKPVAKVVNDNAPQTAKEPDYLDIPAFLRKQAD
Kd (6×His-ZapC^K94D): 2.1 µM | Kd (6×His-ZapC^F30D): 2.97 µM
